We go through 2 molecules from paper PMC4000066 (Cell, 2014).

The target in test [1] is endogenous ASC of THP-1 cells (human (endogenous in THP-1), UniProt Q9ULZ3 1-195). Put plainly: co-IP.
Test [2] addresses ASC^FL (from His-MBP-ASC^FL after removal of His-MBP by TEV) (UniProt Q9ULZ3 1-195). Kind of test: pull-down.

Sequence of ASC^FL (from His-MBP-ASC^FL after removal of His-MBP by TEV) (Q9ULZ3 whole entry): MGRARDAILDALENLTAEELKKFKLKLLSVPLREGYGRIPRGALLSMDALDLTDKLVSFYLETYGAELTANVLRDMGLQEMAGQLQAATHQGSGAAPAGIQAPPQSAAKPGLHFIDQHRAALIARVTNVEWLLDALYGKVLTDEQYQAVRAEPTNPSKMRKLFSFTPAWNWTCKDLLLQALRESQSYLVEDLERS
Sequence of endogenous ASC of THP-1 cells (Q9ULZ3 whole entry): as above

B1: endogenous caspase-1 of THP-1 cells (enzyme, human (endogenous in THP-1), UniProt P29466 1-404, looked up)
chain: MADKVLKEKRKLFIRSMGEGTINGLLDELLQTRVLNKEEMEKVKRENATVMDKTRALIDSVIPKGAQACQICITYICEEDSYLAGTLGLSADQTSGNYLNMQDSQGVLSSFPAPQAVQDNPAMPTSSGSEGNVKLCSLEEAQRIWKQKSAEIYPIMDKSSRTRLALIICNEEFDSIPRRTGAEVDITGMTMLLQNLGYSVDVKKNLTASDMTTELEAFAHRPEHKTSDSTFLVFMSHGIREGICGKKHSEQVPDILQLNAIFNMLNTKNCPSLKDKPKVIIIQACRGDSPGVVWFKDSVGVSGNLSLPTTEEFEDDAIKKAHIEKDFIAFCSSTPDNVSWRHPTMGSVFIGRLIEHMQEYACSCDVEEIFRKVRFSFEQPDGRAQMPTTERVTLTRCFYLFPGH
Broadly, the stoichiometry N is the number of molecules, sites or subunits per partner or assembly. For the molecule B1, the “stoichiometry N” value in test [1] was ~3.5 fold (caspase-1 to ASC).

B2: His-GFP-caspase-1^CARD (domain or fragment, UniProt P29466 1-91, looked up)
chain: MADKVLKEKRKLFIRSMGEGTINGLLDELLQTRVLNKEEMEKVKRENATVMDKTRALIDSVIPKGAQACQICITYICEEDSYLAGTLGLSA
As to B2, in test [2], the binding result is “binds”.
